{"source": "patent US20150299255A1", "binders": {"B1": {"name": "biotinylated quadravalent SVH1C (peptide)", "peptide": "NPSHPLSGGGGS", "chain": "KKKK", "modifications": "not checked"}}, "biological_target": "lectin SNA1 from Sambucus nigra (Sambucus nigra), Q41358", "sequence (Q41358 29-289 limits assumed, chain 1 of 2)": "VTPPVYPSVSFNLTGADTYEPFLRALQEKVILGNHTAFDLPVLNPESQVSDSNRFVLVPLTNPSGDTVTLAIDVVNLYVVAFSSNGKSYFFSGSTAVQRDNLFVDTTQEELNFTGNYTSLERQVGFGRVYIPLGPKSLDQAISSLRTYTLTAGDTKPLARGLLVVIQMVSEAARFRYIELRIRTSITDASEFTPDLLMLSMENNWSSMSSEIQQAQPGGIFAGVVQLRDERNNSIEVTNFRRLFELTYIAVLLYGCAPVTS", "sequence (Q41358 309-570 limits assumed, chain 2 of 2)": "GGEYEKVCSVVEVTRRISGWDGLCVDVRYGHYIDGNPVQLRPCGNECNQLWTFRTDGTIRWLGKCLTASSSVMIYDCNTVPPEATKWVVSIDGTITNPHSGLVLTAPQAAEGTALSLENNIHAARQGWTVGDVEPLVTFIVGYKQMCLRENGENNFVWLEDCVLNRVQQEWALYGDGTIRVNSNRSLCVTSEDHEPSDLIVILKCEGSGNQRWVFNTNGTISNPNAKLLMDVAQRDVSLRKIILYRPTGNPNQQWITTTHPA", "experiment": "solid-phase assay, peptide titrated into wells containing bound lectin (FIG. 7)", "data": [{"binder": "B1", "values": [{"measurement": "amount of peptide at half-maximal binding (pmoles peptide per well)", "value": 25}]}]}
